The source of these data is publication PMC10985467 (Molecular Cancer Therapeutics, 2024).

This assay addresses CD22 on human lymphoma and leukemia cell lines (Homo sapiens (Human)., UniProt P20273). Description: cell-based or functional assay.

Sequence of CD22 on human lymphoma and leukemia cell lines (P20273 20-847): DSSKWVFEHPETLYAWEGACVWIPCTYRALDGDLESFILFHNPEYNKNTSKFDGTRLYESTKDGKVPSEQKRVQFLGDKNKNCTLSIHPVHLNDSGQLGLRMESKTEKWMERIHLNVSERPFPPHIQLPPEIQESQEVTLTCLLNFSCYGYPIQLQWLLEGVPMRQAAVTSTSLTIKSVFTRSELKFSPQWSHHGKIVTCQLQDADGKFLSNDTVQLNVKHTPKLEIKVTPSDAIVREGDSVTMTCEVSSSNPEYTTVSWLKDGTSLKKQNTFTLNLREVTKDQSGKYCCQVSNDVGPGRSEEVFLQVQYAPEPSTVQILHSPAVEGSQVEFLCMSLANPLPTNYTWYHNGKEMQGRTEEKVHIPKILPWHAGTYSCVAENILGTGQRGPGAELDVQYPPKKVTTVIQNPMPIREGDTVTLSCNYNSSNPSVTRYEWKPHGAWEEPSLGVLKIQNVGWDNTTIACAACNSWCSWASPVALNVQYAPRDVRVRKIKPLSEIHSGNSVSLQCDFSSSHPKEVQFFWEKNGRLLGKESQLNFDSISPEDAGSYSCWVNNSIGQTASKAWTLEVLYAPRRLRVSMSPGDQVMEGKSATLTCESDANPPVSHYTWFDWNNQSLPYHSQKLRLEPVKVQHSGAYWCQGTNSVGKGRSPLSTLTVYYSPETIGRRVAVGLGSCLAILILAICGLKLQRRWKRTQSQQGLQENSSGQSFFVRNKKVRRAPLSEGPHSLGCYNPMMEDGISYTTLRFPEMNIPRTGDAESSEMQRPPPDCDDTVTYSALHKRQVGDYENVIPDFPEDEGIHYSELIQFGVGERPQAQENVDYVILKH

B1: ADCT-602 (hLL2-C220 site-specifically conjugated to the PBD dimer payload tesirine, SG3249) (antibody, V domains shown)
VH: QVQLVQSGAEVKKPGSSVKVSCKASGYTFTSYWLHWVRQAPGQGLEWIGYINPRNDYTEYNQNFKDKATITADESTNTAYMELSSLRSEDTAFYFCARRDITTFYWGQGTLVTVSS
VL: DIQLTQSPSSLSASVGDRVTMSCKSSQSVLYSANHKNYLAWYQQKPGKAPKLLIYWASTRESGVPSRFSGSGSGTDFTFTISSLQPEDIATYYCHQYLSSWTFGQGTKVEIK
On to B1, for which the “IC50 of in vitro cytotoxicity (MTS, 96 hours), DO HH-2 cells” value turned out to be 0.06 nM; the “IC50 of in vitro cytotoxicity (MTS, 96 hours), Daudi cells” value is 0.07 nM; the “IC50 of in vitro cytotoxicity (MTS, 96 hours), GRANTA-519 cells” value is 0.02 nM; the “IC50 of in vitro cytotoxicity (MTS, 96 hours), MEC-2 cells” value is 0.18 nM. The “IC50 of in vitro cytotoxicity (MTS, 96 hours), NALM-6 cells” value is 0.11 nM; the “IC50 of in vitro cytotoxicity (MTS, 96 hours), NAMALWA cells” value is 2.27 nM; the “IC50 of in vitro cytotoxicity (MTS, 96 hours), REH cells” value is 0.05 nM; the “IC50 of in vitro cytotoxicity (MTS, 96 hours), Ramos cells” value amounted to 0.06 nM.
